Results from US8916370B2, “Isoprene synthase variants for improved microbial production of isoprene” (Danisco US Inc., priority 2008, dated 2014).

Assays:
[1] = biological target: P. alba isoprene synthase (IspS), full length, C-terminally TEV and His-tagged (MD09-165), FL(+)TEV, SEQ ID NO:134 (Populus alba, UniProt Q50L36); details: DMAPP 0.625 to 40 mM, 50 mM MgCl2, pH 8, 30° C., 15 min; ± S.D., triplicate
Description: (§1) The relative specific activity was determined and the kinetics of “N-terminally truncated” P. alba isoprene synthases were examined compared to “Full length” P. alba isoprene synthases. Four strains expressing four different constructs were used in this analysis: BL21(λDE3) pLysS with P. alba pET24a; MD09-173; MD09-165; and MD09-167 (Strains described above in detail). These strains express “full length” P. alba IspS, “truncated” P. alba IspS (the MEA truncation), “full length” C-terminally TEV and His-tagged P. alba IspS, and “truncated” C-terminally TEV and His-tagged P. alba IspS, respectively. In the experiments described below, “truncated” refers specifically to the MEA variant of P. alba IspS.
(§2) All strains were inoculated into LB containing 30 mg/L chloramphenicol(Cm) and 50 mg/L kanamycin and grown overnight in 2 mL culture tubes at 37° C. The overnight cultures were diluted 1:100 in 25 mL of LB broth containing 30 mg/L chloramphenicol(Cm) and 50 mg/L kanamycin the following morning and grown at 37° C. until OD˜0.5. Each strain was grown in triplicate. The cultures were then induced with 400 uM IPTG and incubated at 30° C. for 4 hours.

[2] = biological target: P. alba isoprene synthase (IspS), truncated MEA variant, C-terminally TEV and His-tagged (MD09-167), MEA(+)TEV, SEQ ID NO:132 (Populus alba, UniProt Q50L36); details: DMAPP 0.625 to 40 mM, 50 mM MgCl2, pH 8, 30° C., 15 min; ± S.D., triplicate (2.5 mM DMAPP in duplicate)
Description: as §1, §2

[3] = system: E. coli strain MCM531 (BL21 PL.2-mKKDyI); test: Growth inhibition of MCM531 by mevalonic acid; assay type: cell-based, Escherichia coli; details: TM3 medium with 1% glucose and yeast extract; 0, 1, 5, 10, 15 or 20 mM MVA; OD600, quadruplicate
Description: An overnight culture of MCM531 (see strain description) was back-diluted to an OD600 of 0.05 (this corresponds to an OD600 of approx 0.005 in a 96-well plate reader) (SpectraMax M2, Molecular Devices). The diluted culture was then aliquotted into separate wells in a 96-well deep-well plate into standard TM3 medium (13.6 g K2PO4, 13.6 g KH2PO4, 2.0 g MgSO4*7H2O) supplemented with 1% glucose and 0.8 g/L Biospringer yeast extract (1% Yeast extract final)) with 0, 1, 5, 10, 15 or 20 mM MVA added. […] Each MVA concentration was assayed in quadruplicate, error bars were negligible.

[4] = substrate: CC(C)=CCOP(=O)(O)OP(=O)(O)O; test: purified protein, by the assay type; details: other: DMAPP 0.625 to 40 mM, 50 mM MgCl2, pH 8, 30° C., 15 min, ± S.D., triplicate

Sequence of P. alba isoprene synthase (IspS), truncated MEA variant, C-terminally TEV and His-tagged (MD09-167), MEA(+)TEV, SEQ ID NO:132 (Q50L36 with tags, fused parts or gaps): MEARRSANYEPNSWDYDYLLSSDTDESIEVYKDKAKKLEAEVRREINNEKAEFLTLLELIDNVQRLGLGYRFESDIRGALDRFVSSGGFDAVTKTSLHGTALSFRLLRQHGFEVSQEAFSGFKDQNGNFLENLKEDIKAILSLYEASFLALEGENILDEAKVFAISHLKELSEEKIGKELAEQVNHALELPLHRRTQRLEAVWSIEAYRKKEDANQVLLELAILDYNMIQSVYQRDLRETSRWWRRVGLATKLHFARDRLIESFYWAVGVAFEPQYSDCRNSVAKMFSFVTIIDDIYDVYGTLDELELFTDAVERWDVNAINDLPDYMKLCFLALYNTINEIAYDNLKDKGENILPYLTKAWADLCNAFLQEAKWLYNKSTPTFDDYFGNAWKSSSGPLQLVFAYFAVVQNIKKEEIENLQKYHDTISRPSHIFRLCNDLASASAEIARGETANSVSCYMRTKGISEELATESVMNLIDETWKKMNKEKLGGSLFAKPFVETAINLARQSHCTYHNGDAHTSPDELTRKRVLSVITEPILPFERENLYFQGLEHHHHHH
Sequence of P. alba isoprene synthase (IspS), full length, C-terminally TEV and His-tagged (MD09-165), FL(+)TEV, SEQ ID NO:134 (Q50L36 with tags, fused parts or gaps): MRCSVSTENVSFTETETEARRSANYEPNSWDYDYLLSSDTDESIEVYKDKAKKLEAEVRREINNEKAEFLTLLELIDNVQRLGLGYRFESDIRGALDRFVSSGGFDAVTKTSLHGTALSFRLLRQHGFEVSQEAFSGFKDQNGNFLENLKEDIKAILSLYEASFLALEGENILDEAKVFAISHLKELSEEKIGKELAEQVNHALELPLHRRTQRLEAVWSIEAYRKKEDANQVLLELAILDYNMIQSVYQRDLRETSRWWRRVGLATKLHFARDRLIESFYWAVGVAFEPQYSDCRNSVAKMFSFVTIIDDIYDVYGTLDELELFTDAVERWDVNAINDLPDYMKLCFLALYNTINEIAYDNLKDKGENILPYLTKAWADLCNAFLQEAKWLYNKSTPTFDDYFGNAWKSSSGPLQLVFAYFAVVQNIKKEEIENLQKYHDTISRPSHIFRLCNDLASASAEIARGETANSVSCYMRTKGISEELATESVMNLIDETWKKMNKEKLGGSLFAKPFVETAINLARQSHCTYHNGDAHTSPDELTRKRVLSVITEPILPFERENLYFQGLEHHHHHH

## CC(C)=CCOP(=O)(O)OP(=O)(O)O [DMAPP, 3,3-dimethylallyl pyrophosphate]
[1]
  KM: 2400 ± 500 µM
[2]
  KM: 2000 ± 1000 µM

## C[C@@](O)(CCO)CC(=O)O [MVA, Mevalonic Acid]
[3]
  concentration at which growth was severely inhibited: ≥ 5 mM

B1: P. alba isoprene synthase (IspS), N-terminally truncated MEA variant, untagged (MD09-173, pDu39), SEQ ID NO:122 (Populus alba) (protein)
chain: MEARRSANYEPNSWDYDYLLSSDTDESIEVYKDKAKKLEAEVRREINNEKAEFLTLLELIDNVQRLGLGYRFESDIRGALDRFVSSGGFDAVTKTSLHGTALSFRLLRQHGFEVSQEAFSGFKDQNGNFLENLKEDIKAILSLYEASFLALEGENILDEAKVFAISHLKELSEEKIGKELAEQVNHALELPLHRRTQRLEAVWSIEAYRKKEDANQVLLELAILDYNMIQSVYQRDLRETSRWWRRVGLATKLHFARDRLIESFYWAVGVAFEPQYSDCRNSVAKMFSFVTIIDDIYDVYGTLDELELFTDAVERWDVNAINDLPDYMKLCFLALYNTINEIAYDNLKDKGENILPYLTKAWADLCNAFLQEAKWLYNKSTPTFDDYFGNAWKSSSGPLQLVFAYFAVVQNIKKEEIENLQKYHDTISRPSHIFRLCNDLASASAEIARGETANSVSCYMRTKGISEELATESVMNLIDETWKKMNKEKLGGSLFAKPFVETAINLARQSHCTYHNGDAHTSPDELTRKRVLSVITEPILPFER
[4]
  Km: 1800 ± 200 µM
  kcat: 1.5 s⁻¹

B2: P. alba isoprene synthase (IspS), full length, untagged, SEQ ID NO:120 (Populus alba) (protein)
chain: MRCSVSTENVSFTETETEARRSANYEPNSWDYDYLLSSDTDESIEVYKDKAKKLEAEVRREINNEKAEFLTLLELIDNVQRLGLGYRFESDIRGALDRFVSSGGFDAVTKTSLHGTALSFRLLRQHGFEVSQEAFSGFKDQNGNFLENLKEDIKAILSLYEASFLALEGENILDEAKVFAISHLKELSEEKIGKELAEQVNHALELPLHRRTQRLEAVWSIEAYRKKEDANQVLLELAILDYNMIQSVYQRDLRETSRWWRRVGLATKLHFARDRLIESFYWAVGVAFEPQYSDCRNSVAKMFSFVTIIDDIYDVYGTLDELELFTDAVERWDVNAINDLPDYMKLCFLALYNTINEIAYDNLKDKGENILPYLTKAWADLCNAFLQEAKWLYNKSTPTFDDYFGNAWKSSSGPLQLVFAYFAVVQNIKKEEIENLQKYHDTISRPSHIFRLCNDLASASAEIARGETANSVSCYMRTKGISEELATESVMNLIDETWKKMNKEKLGGSLFAKPFVETAINLARQSHCTYHNGDAHTSPDELTRKRVLSVITEPILPFER
[4]
  Km: 2400 ± 300 µM
  kcat: 0.72 s⁻¹
